Laboratory results reported in PMC9004346 (2022).
Bridges are numbered along the chain shown (N, C = ends). Where no end group is shown, it is not given here. C4 = constraint linking the two cyclising residues; C5 = constraint linking the two cyclising residues; C7 = constraint linking the two cyclising residues

Legend:
Assay in all cases: fluorescence polarisation competition
[1] = molecular target: T1, P5C7 (linker 1-8 via C7; not fully specified (N-terminus, C-terminus); also: structure of constraint C7 not given here in text)
T1 chain: CRLYGFKC

[2] = molecular target: T2, P1
T2 chain: Ac-RLYGFK-NH2

[3] = molecular target: T3, P5C5 (linker 1-8 via C5; not fully specified (N-terminus, C-terminus); also: structure of constraint C5 not given here in text)
T3 chain: CRLYGFKC

[4] = molecular target: T4, P3
T4 chain: Ac-RLYGFKW-NH2

[5] = molecular target: T5, P2
T5 chain: Ac-LYGFKW-NH2

[6] = molecular target: T6, P4
T6 chain: Ac-RLYGFKWH-NH2

[7] = molecular target: T7, P5C4 (linker 1-8 via C4; not fully specified (N-terminus, C-terminus); also: structure of constraint C4 not given here in text)
T7 chain: CRLYGFKC

[8] = molecular target: T8, P7C8 (bridge 1-8; not fully specified (N-terminus, C-terminus, bridges); printed as C_C8_RLYGFKW_C8_; also: structure of constraint C8 not given here in text)
T8 chain: CRLYGFKW

IC50 [1]: 40 µM | IC50 [2]: > 500 µM | IC50 [3]: 28.9 µM | IC50 [4]: 22.5 µM | IC50 [5]: 137 µM | IC50 [6]: 16.7 µM | IC50 [7]: 54.6 µM | IC50 [8]: 15.6 µM
B1: CK2α (protein)
chain: MSGPVPSRARVYTDVNTHRPREYWDYESHVVEWGNQDDYQLVRKLGRGKYSEVFEAINITNNEKVVVKILKPVKKKKIKREIKILENLRGGPNIITLADIVKDPVSRTPALVFEHVNNTDFKQLYQTLTDYDIRFYMYEILKALDYCHSMGIMHRDVKPHNVMIDHEHRKLRLIDWGLAEFYHPGQEYNVRVASRYFKGPELLVDYQMYDYSLDMWSLGCMLASMIFRKEPFFHGHDNYDQLVRIAKVLGTEDLYDYIDKYNIELDPRFNDILGRHSRKRWERFVHSENQHLVSPEALDFLDKLLRYDHQSRLTAREAMEHPYFYTVVKDQARMGSSSMPGGSTPVSSANMMSGISSVPTPSPLGPLAGSPVIAAANPLGMPVPAAAGAQQ
